Data from article PMC8200006.

Target: purified pig brain plasma membrane Ca2+-ATPase (PMCA) (pig) (UniProt P23220)
UniProt P23220, sequence (P23220 whole entry): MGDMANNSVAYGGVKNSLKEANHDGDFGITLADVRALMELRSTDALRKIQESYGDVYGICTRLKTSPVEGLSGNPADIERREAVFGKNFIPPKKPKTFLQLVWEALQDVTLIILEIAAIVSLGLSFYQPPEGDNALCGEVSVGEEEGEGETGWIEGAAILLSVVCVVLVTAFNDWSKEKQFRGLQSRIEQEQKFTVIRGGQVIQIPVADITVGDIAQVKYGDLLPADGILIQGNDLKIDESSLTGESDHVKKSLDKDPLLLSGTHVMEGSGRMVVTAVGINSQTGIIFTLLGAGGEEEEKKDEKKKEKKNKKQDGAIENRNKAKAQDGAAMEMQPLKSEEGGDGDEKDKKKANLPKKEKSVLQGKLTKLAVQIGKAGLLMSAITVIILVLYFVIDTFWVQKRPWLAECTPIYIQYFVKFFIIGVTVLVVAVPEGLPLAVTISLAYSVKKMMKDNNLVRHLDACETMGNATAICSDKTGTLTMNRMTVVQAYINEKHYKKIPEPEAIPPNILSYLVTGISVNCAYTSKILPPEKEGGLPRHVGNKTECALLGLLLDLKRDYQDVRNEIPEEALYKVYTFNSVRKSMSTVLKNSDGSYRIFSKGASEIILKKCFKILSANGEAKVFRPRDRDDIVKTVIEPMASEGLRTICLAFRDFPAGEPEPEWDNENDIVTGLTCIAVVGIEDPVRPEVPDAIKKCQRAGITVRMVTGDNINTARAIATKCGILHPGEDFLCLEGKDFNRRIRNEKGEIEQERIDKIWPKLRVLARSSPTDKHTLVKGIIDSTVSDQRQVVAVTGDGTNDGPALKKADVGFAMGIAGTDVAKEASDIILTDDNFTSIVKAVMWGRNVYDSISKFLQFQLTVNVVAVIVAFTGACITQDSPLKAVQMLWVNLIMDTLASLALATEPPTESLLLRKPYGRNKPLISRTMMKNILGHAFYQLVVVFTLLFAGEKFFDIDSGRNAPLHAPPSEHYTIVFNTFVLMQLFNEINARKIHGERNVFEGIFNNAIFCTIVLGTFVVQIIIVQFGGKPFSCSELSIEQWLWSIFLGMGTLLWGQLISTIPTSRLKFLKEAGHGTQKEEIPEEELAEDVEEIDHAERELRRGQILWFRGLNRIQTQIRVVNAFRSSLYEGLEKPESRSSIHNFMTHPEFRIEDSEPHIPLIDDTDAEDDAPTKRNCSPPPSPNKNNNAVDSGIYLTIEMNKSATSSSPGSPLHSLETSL

Ca2+-ATPase activity of purified pig brain PMCA reconstituted in PC, sorcin 12.5-50 nM in the assay medium, with Ca2+: fold activation: 1.8 fold
Ca2+-ATPase activity of purified pig brain PMCA reconstituted in PC: EC50 of activation by sorcin (in the assay medium): 12.5 nM
B1: Recombinant Human SRI (sorcin), soluble resistance-related calcium-binding protein (natural protein)
chain: MAYPGHPGAGGGYYPGGYGGAPGGPAFPGQTQDPLYGYFAAVAGQDGQIDADELQRCLTQSGIAGGYKPFNLETCRLMVSMLDRDMSGTMGFNEFKELWAVLNGWRQHFISFDTDRSGTVDPQELQKALTTMGFRLSPQAVNSIAKRYSTNGKITFDDYIACCVKLRALTDSFRRRDTAQQGVVNFPYDDFIQCVMSV
